Assay results from patent publication US20220306734A1 (H LUNDBECK A S, published 2022).

Legend:
[1] = biological target: human mGluR5 extracellular domain (human-mGluR5-ECD) (human) (UniProt P41594); experiment: HTRF, soluble ECD
[2] = biological target: human mGluR5 extracellular domain (human-mGluR5-ECD) (human) (UniProt P41594); experiment: HTRF, soluble ECD; remark: listed apart in the source
[3] = biological target: T1, human mGluR1 extracellular domain (human-mGluR1-ECD) (human, UniProt Q13255 19-592, limits assumed); experiment: HTRF, soluble ECD
T1 construct: ECD construct made 'in a similar fashion' to the human mGluR5 one; also called hu-mGluR1
Procedure: (§1) Binding of antibodies to mGluR5/mGluRJ measured via Homogeneous Time-Resolved Fluorescence (HTRF). Binding assays were performed using HTRF reagents from CisBio. Ten microliters of an antibody dilution series (highest final concentration of 30 nM) was incubated with 10 μl of mGluR-ECD (10 nM final concentration) in HTRF buffer (50 mM Phosphate buffer pH7, 0.8M KF (potassium fluoride), 0.2% BSA). Twenty microliters of Europium-labeled anti-hu-Fc donor (2 nM final concentration, CisBio Catalog No. 61HFCKLB) and 20 μl of XL665-labeled anti-Flag acceptor (60 nM final concentration, CisBio Catalog No. 61FG2XLB) were added to each well and incubated for 1 hour at room temperature. Alternatively, the antibody dilution series was incubated with 10 μl of biotinylated mGluR-ECD (10 nM final concentration), and 20 μl of Europium-labeled anti-hu-Fc donor (2 nM final concentration) and 20 μl of d2-labeled streptavidin acceptor (60 nM final concentration, CisBio Catalog No. 610SADLB) were added to each well. Fluorescence was measured at 620 and 665 nm with a delay of 300 μsec. Results were expressed as the ratio of signal at 665 nm over 620 nm. EC₅₀ values were calculated for binding of Ab1-Ab23 to human-mGluR5-ECD, of Ab1-Ab21 to rat-mGluR5-ECD, and of Ab1, Ab2 and Ab4-Ab12 to monkey-mGluR5-ECD and to human-mGluR1-ECD (TABLE 1).

[4] = biological target: T2, cynomolgus monkey mGluR5 extracellular domain (monkey-mGluR5-ECD) (cynomolgus monkey, UniProt P41594 21-580 (human entry), limits assumed); experiment: HTRF, soluble ECD
T2 construct: ECD construct made 'in a similar fashion' to the human one; also called cyno-mGluR5
Procedure: as §1

[5] = biological target: T3, rat mGluR5 extracellular domain (rat-mGluR5-ECD) (rat, UniProt P31424 21-504); experiment: HTRF, soluble ECD
T3 construct: ECD construct made 'in a similar fashion' to the human one
Procedure: as §1

[6] = biological target: full-length (FL) human mGluR5 on BA/F3-mGluR5 clone 10C9 cells (human) (UniProt P41594); experiment: cell-based or functional assay
[7] = biological target: full-length (FL) human mGluR5 on BA/F3-mGluR5 clone 10C9 cells (human) (UniProt P41594); experiment: flow cytometry, BA/F3-mGluR5 10C9 cells, 10 ug/ml antibody
[8] = biological target: human mGluR5 extracellular domain (human-mGluR5-ECD) (human) (UniProt P41594); experiment: AlphaLISA, biotinylated ECD
[9] = biological target: human mGluR5 extracellular domain (human-mGluR5-ECD) (human) (UniProt P41594); experiment: AlphaLISA, biotinylated ECD; remark: listed apart in the source

T2 sequence (P41594 other isoform, or with tags, fused parts or gaps limits assumed): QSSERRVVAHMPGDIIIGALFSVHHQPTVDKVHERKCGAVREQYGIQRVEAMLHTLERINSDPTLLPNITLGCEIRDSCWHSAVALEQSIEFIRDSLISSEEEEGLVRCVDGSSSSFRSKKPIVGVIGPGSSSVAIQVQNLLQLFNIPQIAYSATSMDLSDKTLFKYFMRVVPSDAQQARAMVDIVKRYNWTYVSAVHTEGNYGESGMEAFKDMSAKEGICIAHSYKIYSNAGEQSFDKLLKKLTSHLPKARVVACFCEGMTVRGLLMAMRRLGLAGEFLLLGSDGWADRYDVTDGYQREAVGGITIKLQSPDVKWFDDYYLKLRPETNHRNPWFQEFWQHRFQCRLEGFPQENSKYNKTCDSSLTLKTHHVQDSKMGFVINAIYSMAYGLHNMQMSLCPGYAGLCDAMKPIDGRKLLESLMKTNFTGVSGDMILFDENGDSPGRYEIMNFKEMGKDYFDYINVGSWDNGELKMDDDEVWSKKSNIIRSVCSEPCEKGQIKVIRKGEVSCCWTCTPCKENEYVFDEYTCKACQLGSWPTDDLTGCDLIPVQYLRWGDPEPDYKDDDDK
T3 sequence (P31424 other isoform, or with tags, fused parts or gaps limits assumed, form in doubt): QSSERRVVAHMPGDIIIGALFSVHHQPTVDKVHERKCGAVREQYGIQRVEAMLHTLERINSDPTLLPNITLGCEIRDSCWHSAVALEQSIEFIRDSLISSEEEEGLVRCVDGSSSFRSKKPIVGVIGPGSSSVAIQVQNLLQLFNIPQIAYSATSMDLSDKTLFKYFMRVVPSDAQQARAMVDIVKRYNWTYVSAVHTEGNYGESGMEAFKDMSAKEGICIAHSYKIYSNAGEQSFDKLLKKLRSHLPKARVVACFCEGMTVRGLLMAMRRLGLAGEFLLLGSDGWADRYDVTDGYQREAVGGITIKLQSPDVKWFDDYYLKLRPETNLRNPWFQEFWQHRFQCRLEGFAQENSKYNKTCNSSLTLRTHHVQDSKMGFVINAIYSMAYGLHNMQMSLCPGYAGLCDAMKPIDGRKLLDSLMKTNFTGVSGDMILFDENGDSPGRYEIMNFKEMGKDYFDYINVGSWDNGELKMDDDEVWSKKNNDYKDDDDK
Sequence of human mGluR5 extracellular domain (human-mGluR5-ECD) (human) (P41594 other isoform, or with tags, fused parts or gaps): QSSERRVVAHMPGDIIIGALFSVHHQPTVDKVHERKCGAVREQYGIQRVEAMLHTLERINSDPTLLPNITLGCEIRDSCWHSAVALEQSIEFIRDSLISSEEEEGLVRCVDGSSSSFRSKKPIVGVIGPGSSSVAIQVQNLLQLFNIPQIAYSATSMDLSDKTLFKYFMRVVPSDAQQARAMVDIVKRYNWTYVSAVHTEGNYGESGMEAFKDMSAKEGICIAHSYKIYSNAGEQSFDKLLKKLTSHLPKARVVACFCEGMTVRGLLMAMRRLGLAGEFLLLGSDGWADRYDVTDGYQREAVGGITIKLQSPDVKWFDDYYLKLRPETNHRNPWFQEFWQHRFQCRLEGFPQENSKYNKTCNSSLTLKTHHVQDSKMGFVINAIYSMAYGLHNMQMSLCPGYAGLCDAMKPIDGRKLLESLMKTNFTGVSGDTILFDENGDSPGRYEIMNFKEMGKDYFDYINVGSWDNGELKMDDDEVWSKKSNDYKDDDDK
T1 sequence (Q13255 other isoform, or with tags, fused parts or gaps limits assumed): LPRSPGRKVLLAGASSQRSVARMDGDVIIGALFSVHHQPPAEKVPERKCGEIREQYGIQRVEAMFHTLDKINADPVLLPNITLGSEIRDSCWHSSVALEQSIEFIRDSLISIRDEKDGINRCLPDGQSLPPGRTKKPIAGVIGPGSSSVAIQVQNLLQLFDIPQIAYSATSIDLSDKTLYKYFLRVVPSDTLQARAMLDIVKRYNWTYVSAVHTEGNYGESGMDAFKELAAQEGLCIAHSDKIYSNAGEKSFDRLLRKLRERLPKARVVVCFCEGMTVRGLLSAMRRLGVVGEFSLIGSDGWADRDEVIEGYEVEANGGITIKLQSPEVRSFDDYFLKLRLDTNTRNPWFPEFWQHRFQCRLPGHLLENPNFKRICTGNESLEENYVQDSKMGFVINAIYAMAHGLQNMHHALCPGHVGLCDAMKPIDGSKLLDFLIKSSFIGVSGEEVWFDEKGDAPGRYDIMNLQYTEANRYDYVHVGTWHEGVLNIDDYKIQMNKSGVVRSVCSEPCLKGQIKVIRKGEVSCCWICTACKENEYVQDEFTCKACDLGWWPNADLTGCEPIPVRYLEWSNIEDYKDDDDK

Binder	EC50 [1] [nM]	EC50 [2] [nM]	binding result [3]	EC50 [4] [nM]	EC50 [5] [nM]	pERK Assay Inhibition IC50-nM [6] [nM]	mGluR5 (FL) cell binding-fold over background [7] [fold]	EC50 [8] [nM]	EC50 [9] [nM]
mGluR5 Ab10 (antibody, V domains shown, Rabbit variable regions on human heavy and light chain constant regions (chimeric)) VH: QSLEESGGRLVTPGTPLTLTCTVSGIDLSSYAVGWVRQAPGKGLEYIGIIYASGNTWYASWVKGRFTISKTSTTVDLKMTSLTTEDTATYFCARGHGATYDYFNLWGPGTLVTVSS VL: AYDMTQTPASVEVAVGGTVTIKCQASQSISSWLAWYQQKPGQPPKLLIYDASDLASGVPSRFKGSGSGTEYTLTISGVQCDDAATYYCQQGLATANVDNVFGGGTEVVVKR	< 2	0.409	no binding	0.339	0.848	1.07	27.9		
mGluR5 Ab9 (antibody, V domains shown, Rabbit variable regions on human heavy and light chain constant regions (chimeric)) VH: QSVEESGGRLVTPGTPLTLTCTVSGFSLNNYAMNWIRQAPGKGLEWIGIIYGSGSTYYASWAKGRFTASKTSTTVDLKMTSLTTEDTATYFCARDELAAGINYFTLWGQGTLVTVSS VL: ALVMTQTPASVEVAVGGTVTIKCQASQNIIDWCSWYQQKLGQPPKLLIYEASKLASGVPSRFKGSGSGTQFTLTISGVECADAATYYCQQGYSPSGVDNVFGGGTEVVVKR	< 2	0.998	no binding	0.398	0.519	2.97	28.4		
mGluR5 Ab5 (antibody, V domains shown, Rabbit variable regions on human heavy and light chain constant regions (chimeric)) VH: QEQLVESGGGLVQPEGSLTLTCTASGIDFSSGYFMCWVRQAPGKGLEWIACISPYSDNTWYANWAKGRFTISKTSSTTVTLQMTSLTAADTAAYRCARTMAIGAYNPFKLWGQGTLVTVSS VL: ALVMTQTPSSVSAAVGGTVTINCQASQNIYSNLAWYQQKPGQRPKLLIYDASDLASGVSSRVKGSGSGTEFTLTISDLECADAATYYCQGYYSGNAFGGGTEVVVKR	< 2	0.54	no binding	0.31	0.311	1.51	36.3		
mGluR5 Ab7 (antibody, V domains shown, Rabbit variable regions on human heavy and light chain constant regions (chimeric)) VH: QSVEESGGRLVTPGTPLTLTCTVSGFSLSRYAMGWVRHVPGKGLEWIGIIYASGSTYYASWAKGRFTISKTSTTVDLKITSPTTEDTATYFCARSRTATYDAVDPWGPGTLVTVSS VL: AYDMTQTPASVSEPVGGTVTIKCQASQSISSYLSWYQQKPGQPPKLLIYEASTLASGVSSRFKGSGSGTEYTLTISDLECDDAAAYYCQQDLSGSNLDNSFGGGTEVVVKR	< 2	1.02	no binding	0.37	0.63	1.34	28.9		
mGluR5 Ab2 (antibody, V domains shown, Rabbit variable regions on human heavy and light chain constant regions (chimeric)) VH: QQQLEESGGGLVKPGGTLTLTCKASGIDFSGYYYMCWVRQAPGKGLEWIACVYTGDGGTYYASWAKGRFTISKTSSTTVTLQMTSLTAADTATYFCARGSGVGSYGYNLWGQGTLVTVSS VL: DIVMTQTPASVEAAVGGTVTIKCQASESIYSNLAWYQQKPGQPPKLLIYRASNLESGVPSRFKGSGSGTEFTLTISDLECADAATYYCQGYYAITTTNAFGGGTEVVVKR	< 2	0.341	no binding	0.36	0.476	0.16	40.3		
mGluR5 Ab24 (antibody, V domains shown) VH: QQQLEESGGGLVKPGGTLTLTCKASGIDFSNVYYMCWVRQAPGKGPEWIACIYVGDGSTYDASWARGRFTISKTSSTTVTLQMISLTAADTATYFCAGGTGVGSYGYSLWGPGTLVTVSS VL: DIVMTQTPASVEAAVGGTVTIKCQASESIYSNLAWYHQKPGQPPKLLIYRASNLESGVPSRFKGSGSGTDFTLTISDLECADAATYYCQGYYASVVTNGFGGGTEVVVKR						0.1	37.2	0.0947	< 2
mGluR5 Ab26 (antibody, V domains shown) VH: QSVEESGGGLVKPEGSLTLTCKASGFDLSSYYYMCWVRQAPGKGPEWIACIYAGDGTTYYASWAKGRFTISKTSSTTVTLQMTSLTAADTATYFCARGTGVGSYGYNLWGPGTLVTVSS VL: DIVMTQTPASVEAAVGGTVTIKCQASENIYSNLAWYQQKPGQPPKLLIYRASNLESGVPSRFKGSGSGTEFTLTISDLECDDAATYYCQGYYPSAVTNAFGGGTEVVVKR						0.1	39.4	0.101	< 2
mGluR5 Ab27 (antibody, V domains shown) VH: QSVEESGGGLVKPGGTLTLTCKASGIDFSSYHYMCWVRQAPGKGLEWIACIYNGDGDTYYASWAKGRFTISKTSSTTVTLQMTSLTAADTATYFCARGSGVGSYGYNLWGPGTLVTVSS VL: DIVMTQTPASVEAAVGGTVTIKCQASESIYSNLAWYQQKPGQPPKLLIYRASNLESGVPSRFKGSGSGTEFTLTISDLECADAATYYCQGYYASTTTNAFGGGTEVVVKR						0.06	37.8	0.0772	< 2
mGluR5 Ab25 (antibody, V domains shown) VH: QRQLEESGGGLVKPGGALTLTCKASGIDFSSYYYRCWVRQAPGKGLEWIACIYTGDGTTYYASWAKGRFTTSKTSSTTVTLQMTSLTAADTATYFCARGSGVGSYGYNFWGPGTLVTVSS VL: DIVMTQTPASVEAAVGGTVTIKCQASESIYSNLAWYQQKPGQPPKLLIYRASTLESGVPSRFKGSGSGTEFTLTISDLECADAATYYCQGYYASIITNAFGGGTEVVVKR						0.11	37.9	0.0915	< 2
mGluR5 Ab6 (antibody, V domains shown, Rabbit variable regions on human heavy and light chain constant regions (chimeric)) VH: QSLEESGGRLVTPGGTLTLTCTVSGIDLSSYAMSWVRQAPGKGLEWIGIIYASGNTWYANWVKGRFTISKTSTTVDLKMTSPTTEDTATYFCARDSSATFNYLDLWGQGTLVTVSS VL: AFHMTQTPASMEVAVGGTVTMKCQASESIDTYLNWYQQKPGQPPKLLIYQASKLASGVPSRFKGSGSGTEFTLTISGVECADAATYYCQQGWSTNDVDNVFGGGTEVVVKR	< 2	0.415	no binding	0.424	0.771	4.29	24.4		
mGluR5 Ab12 (antibody, V domains shown, Rabbit variable regions on human heavy and light chain constant regions (chimeric)) VH: QSVEESGGRLVTPGTPLTLTCTVSGIDLSSNAMGWVRQAPGKGLEWIGIIYASGNAWYANWVKGRFTISKTSTTVDLKITSPTTEDTATYFCARDATATWDYFNLWGQGTLVTVSS VL: AYDMTQTPSSVSAAVGGTVTIKCQASQSISNWLSWYQQKPGQPPKLLIYRASTLASGVSSRFSGSGSGTEFTLTISDLECADAATYYCQQGYSVANVDNAFGGGTEVVVKR	< 2	0.775	no binding	0.359	0.991	3.73	31.9		
mGluR5 Ab11 (antibody, V domains shown, Rabbit variable regions on human heavy and light chain constant regions (chimeric)) VH: QSLEESGGGLVKPGGTLTLTCTASGFSFSSSYWICWVRQAPGKGLEWIGCIYGSTDAYNANWAKGRFAISQTSSTTVTLQMTSLPAADTATYFCARHDGDIGWTLDLWGPGTLVTVSS VL: AYDMTQTPASVEVAVGGTVTIKCQASLTIGTRLAWYQQKPGQPPKLLIYKASTLASGVSSRFKGSGSGTQFALTISDLECADAATYYCQQAAYVTDIDNAFGGGTEVVVKR	< 2	0.545	no binding	0.255	0.423	0.14	37		
